Laboratory results as given in patent US20180128830A1, “DETECTION OF HUMAN CYTOMEGALOVIRUS IN BREAST CANCER” (priority 2015, published 2018).

Target: T1, IL-10R (Homo sapiens, UniProt Q13651)
T1 construct: uninfected tumor cells express the IL-10R complex; endogenous in cells; host or cells: MDA-MB-231 human breast cancer cells
T1 sequence (Q13651 22-578): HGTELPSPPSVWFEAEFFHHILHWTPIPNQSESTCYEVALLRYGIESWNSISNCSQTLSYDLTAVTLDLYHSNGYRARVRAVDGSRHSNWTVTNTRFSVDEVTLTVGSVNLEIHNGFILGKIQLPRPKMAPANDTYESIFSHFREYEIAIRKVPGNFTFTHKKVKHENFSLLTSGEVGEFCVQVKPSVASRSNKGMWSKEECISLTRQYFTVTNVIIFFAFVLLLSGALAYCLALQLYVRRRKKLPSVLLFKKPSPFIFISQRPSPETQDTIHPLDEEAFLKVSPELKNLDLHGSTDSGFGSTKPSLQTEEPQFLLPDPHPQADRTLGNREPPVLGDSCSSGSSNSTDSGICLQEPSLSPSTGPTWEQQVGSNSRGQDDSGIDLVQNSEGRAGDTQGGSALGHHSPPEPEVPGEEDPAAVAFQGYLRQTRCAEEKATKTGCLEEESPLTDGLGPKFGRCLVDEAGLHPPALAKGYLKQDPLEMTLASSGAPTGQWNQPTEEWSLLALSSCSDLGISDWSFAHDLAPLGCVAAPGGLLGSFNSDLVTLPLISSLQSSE
T1 sequence (Q08334 20-325 partner): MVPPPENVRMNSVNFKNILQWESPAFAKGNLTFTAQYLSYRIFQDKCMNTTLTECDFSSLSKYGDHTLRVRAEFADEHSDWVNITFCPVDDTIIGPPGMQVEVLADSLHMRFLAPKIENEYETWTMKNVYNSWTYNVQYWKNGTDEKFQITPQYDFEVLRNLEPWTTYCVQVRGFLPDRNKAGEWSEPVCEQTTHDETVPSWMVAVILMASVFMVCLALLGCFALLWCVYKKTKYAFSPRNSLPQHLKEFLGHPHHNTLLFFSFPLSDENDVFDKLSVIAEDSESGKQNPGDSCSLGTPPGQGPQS
Experiment: IL-10R immunofluorescence microscopy
Type: cell-based
Settings: MDA-MB-231 cells, 100 ng/ml, 15 min
Protocol: MDA-MB-231 cells were seeded into 6-well dishes containing FBS-coated glass coverslips at a density of 2×10^5 cells per well and then incubated for 48 hrs at 37° C. Cell monolayers were washed with PBS, fixed with 4% paraformaldehyde, then permeabilized with 0.2% (w/v) Triton X-100 followed by treatment with ice cold 50% methanol-50% acetone for 30 min. Cells were then blocked with PBS+10% FBS for 1 hr at 37° C. and stained with anti-IL-10Rα antibody (Santa Cruz Biotechnology) at a 1:100 dilution for 1 hr at 37° C. Following three PBS washes, the coverslips were incubated with TRITC-conjugated secondary antibody for 1 hr, washed again, and then mounted on a glass slide using Prolong Gold anti-fade reagent with DAPI (Life Technologies, Grand Island, N.Y.). HFF cells were also grown on coverslips as described, mock- or virus-infected, and stained with anti-IE1 (EMD Millipore) followed by FITC-conjugated secondary antibody. Images were acquired using a Zeiss LSM700 laser scanning confocal microscope using Zen Black software (Carl Zeiss, Inc., Oberkochen, Germany).

B1: cmvIL-10 (protein)
chain: ATTTTIKNTKPQCRPEDYATRLQDLRVTFHRVKPTLQREDDYSVWLDGTVVKGCWGCSVMDWLLRRYLEIVFPAGDHVYPGLKTELHSMRSTLESIYKDMRQCPLLGCGDKSVISRLSQEAERKSDNGTRKGLSELDTLFSRLEEYLHSRK
  IL-10R distribution after treatment: distinct redistribution of IL-10R
